Holding throughout (details): both partners purified
Assay [1] deals with T1, PGC1α 6X his-tagged construct (UniProt Q9UBK2 1-798).
T1 construct: PGC1α, 6X his-tagged construct held on a Ni-NTA chip
T1 sequence (looked up): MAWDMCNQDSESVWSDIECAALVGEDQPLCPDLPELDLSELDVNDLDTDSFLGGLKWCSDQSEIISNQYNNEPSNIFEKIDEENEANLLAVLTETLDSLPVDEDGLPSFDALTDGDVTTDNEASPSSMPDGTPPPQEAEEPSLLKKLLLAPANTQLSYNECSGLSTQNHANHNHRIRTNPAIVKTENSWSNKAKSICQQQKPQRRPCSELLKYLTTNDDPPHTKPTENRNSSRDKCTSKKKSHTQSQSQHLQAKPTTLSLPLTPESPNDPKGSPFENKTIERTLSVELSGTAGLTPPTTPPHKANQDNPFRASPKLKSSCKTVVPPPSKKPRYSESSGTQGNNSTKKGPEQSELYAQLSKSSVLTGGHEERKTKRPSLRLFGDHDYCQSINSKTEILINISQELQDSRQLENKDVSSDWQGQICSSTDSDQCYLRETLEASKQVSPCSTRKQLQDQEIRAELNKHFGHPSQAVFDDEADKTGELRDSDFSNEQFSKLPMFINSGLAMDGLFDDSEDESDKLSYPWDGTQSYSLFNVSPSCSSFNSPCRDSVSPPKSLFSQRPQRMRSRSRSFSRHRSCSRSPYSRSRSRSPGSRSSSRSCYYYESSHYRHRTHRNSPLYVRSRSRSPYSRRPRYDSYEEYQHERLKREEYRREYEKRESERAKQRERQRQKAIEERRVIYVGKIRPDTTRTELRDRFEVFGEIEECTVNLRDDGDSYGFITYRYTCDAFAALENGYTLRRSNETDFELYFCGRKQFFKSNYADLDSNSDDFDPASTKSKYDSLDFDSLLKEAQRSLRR
Put plainly: SPR; Biacore T200; ~1000 RU PGC1α 6X his held non-covalently on a Ni-NTA chip; Clk1 flowed, 30 µl/min; one-site specific binding model with Hill slope. (In general: SPR reads the build-up and loss of mass on a sensor chip optically.)

Assay [2] deals with T2, Clk1 (recombinant, covalently immobilised on the CM5 chip) (UniProt P49759 1-484).
T2 construct: Clk1 kinase, recombinant; The methods print the catalogue number beside PDB 1Z57, which was used for modelling; also called Clk1 GST; source: bought: AbCam #114 706 (recombinant)
T2 sequence (P49759 whole entry): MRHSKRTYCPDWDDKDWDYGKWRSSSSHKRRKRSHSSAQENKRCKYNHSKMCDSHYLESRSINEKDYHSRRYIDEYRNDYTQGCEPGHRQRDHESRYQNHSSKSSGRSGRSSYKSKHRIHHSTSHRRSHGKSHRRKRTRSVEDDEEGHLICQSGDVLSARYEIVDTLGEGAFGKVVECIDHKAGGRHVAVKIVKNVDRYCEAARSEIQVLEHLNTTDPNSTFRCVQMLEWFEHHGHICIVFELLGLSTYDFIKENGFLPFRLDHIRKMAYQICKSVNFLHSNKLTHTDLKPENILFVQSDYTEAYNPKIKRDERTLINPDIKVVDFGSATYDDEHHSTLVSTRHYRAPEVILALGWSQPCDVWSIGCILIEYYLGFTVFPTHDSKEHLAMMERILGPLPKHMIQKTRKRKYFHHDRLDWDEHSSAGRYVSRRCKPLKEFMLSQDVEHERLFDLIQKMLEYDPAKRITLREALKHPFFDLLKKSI
Nature of the assay: SPR; Biacore T200; Clk1, Clk2 (1000 RU) and Clk4 (1000 RU) covalently immobilised on a CM5 chip by NHS/EDC; PGC1α titrated in HBS-N without DMSO, 30 µl/min, 60 s association, 120 s dissociation; steady state, one-site specific binding model.

For assay [3], the target named is T3, Clk2 (recombinant, covalently immobilised on the CM5 chip) (UniProt P49760 1-499).
T3 construct: Clk2 kinase, recombinant; source: bought: Abcam #AB63190 (recombinant)
T3 sequence (P49760 whole entry): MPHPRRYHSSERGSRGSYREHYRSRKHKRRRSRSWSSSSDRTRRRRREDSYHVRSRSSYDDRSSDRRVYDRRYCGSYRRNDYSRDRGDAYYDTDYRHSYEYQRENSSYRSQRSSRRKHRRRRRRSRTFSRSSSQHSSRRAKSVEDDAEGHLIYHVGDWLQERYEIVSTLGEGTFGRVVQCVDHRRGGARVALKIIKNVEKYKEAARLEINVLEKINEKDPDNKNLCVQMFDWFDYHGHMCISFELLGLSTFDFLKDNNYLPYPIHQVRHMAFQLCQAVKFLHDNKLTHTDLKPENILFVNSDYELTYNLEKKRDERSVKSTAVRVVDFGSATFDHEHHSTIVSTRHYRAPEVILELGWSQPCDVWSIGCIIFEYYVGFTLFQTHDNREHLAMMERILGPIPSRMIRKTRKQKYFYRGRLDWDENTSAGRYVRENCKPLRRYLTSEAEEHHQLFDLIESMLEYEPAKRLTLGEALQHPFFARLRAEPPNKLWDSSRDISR
The assay is described as above.

The target in assay [4] is T4, Clk4 (recombinant, covalently immobilised on the CM5 chip) (UniProt Q9HAZ1 1-481).
T4 construct: Clk4 kinase, recombinant; source: bought: Abcam#AB204144 (recombinant)
T4 sequence (Q9HAZ1 whole entry): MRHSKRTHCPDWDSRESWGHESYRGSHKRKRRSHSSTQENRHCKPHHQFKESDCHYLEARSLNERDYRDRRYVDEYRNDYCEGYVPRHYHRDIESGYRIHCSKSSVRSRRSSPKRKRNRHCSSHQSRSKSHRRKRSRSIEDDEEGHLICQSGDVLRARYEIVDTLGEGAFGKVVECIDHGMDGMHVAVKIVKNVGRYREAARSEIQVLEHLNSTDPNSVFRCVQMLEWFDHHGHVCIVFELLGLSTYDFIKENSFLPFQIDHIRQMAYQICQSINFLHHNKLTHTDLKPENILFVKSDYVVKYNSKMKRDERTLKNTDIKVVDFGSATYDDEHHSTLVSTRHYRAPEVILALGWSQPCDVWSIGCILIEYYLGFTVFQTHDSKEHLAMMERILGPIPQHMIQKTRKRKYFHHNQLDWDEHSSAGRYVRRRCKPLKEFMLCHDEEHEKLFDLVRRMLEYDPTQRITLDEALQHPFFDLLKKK
The description is as above.

We go through two molecules from publication PMC9344812, “Induction of beige‐like adipocyte markers and functions in 3T3‐L1 cells by Clk1 and PKCβII inhibitory molecules” (Journal of Cellular and Molecular Medicine, 2022).

One may read the Kd as a measure of binding affinity in units of concentration.

B1: Clk1 (flowed over immobilised PGC1α 6X his) (enzyme)
chain: not shown
notes: Clk1 kinase, recombinant; May be the same bought protein as m1 (AbCam #114 706)
In assay [1], B1 showed a Kd of approximately 38 nM.

B2: PGC1α (titrated and flowed over the Clk chips) (natural protein)
chain: TRTELRDRFEVFGEIEECTVNLRDDGDSYGFITYRYTCDAFAALENGYTLRRSNETDFELYFCGRKQFFKSNYADLDSNSDDFDPASTKSKYDSLDFDSLLKEAQRSLRR
modifications: Limits are not printed. They are recalled from the supplier's listing for catalogue H00010891-Q01 (partial human PPARGC1A, NP_037393 aa 689-798, N-terminal GST) and should be verified. GST is left …
For the molecule B2, the Kd in assay [2] was 240 nM; in assay [3], 980 nM; in assay [4], 509 nM.
